In PMC4371549:
Read-outs that look alike come from different tables or passages of the source.

Assays:
Experiment in all cases: resonant mirror detection
calmodulin = calmodulin (UniProt P0DP23)
[1] = target: cytoplasmic domain of CD44 (UniProt P16070)
[2] = target: cytoplasmic domain of band 3 (UniProt P02730)
[3] = target: cytoplasmic domain of glycophorin C (UniProt P04921)
p55 [4] = target: p55 (UniProt Q00013)
[5] = target: cytoplasmic domain of CD44 (UniProt P16070); remark: listed apart in the source
[6] = target: cytoplasmic domain of band 3 (UniProt P02730); remark: listed apart in the source
[7] = target: cytoplasmic domain of glycophorin C (UniProt P04921); remark: listed apart in the source
p55 [8] = target: p55 (UniProt Q00013); remark: listed apart in the source

cytoplasmic domain of CD44, sequence (P16070 671-742): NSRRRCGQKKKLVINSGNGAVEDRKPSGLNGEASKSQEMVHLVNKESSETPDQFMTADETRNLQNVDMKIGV
p55, sequence (Q00013 whole entry, the tested form may be a part): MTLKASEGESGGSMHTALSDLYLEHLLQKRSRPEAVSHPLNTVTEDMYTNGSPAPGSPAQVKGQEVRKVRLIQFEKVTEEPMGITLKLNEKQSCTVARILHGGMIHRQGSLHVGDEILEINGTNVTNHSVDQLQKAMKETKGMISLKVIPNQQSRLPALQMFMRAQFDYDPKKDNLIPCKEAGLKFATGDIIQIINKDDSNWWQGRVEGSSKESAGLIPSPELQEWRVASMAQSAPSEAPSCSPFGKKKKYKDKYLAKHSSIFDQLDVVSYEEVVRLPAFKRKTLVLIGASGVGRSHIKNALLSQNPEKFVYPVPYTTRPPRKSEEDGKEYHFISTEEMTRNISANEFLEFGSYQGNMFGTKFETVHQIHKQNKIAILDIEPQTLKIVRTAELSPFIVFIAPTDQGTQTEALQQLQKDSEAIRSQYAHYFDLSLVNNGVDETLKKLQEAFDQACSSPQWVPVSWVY
cytoplasmic domain of band 3, sequence (P02730 1-403): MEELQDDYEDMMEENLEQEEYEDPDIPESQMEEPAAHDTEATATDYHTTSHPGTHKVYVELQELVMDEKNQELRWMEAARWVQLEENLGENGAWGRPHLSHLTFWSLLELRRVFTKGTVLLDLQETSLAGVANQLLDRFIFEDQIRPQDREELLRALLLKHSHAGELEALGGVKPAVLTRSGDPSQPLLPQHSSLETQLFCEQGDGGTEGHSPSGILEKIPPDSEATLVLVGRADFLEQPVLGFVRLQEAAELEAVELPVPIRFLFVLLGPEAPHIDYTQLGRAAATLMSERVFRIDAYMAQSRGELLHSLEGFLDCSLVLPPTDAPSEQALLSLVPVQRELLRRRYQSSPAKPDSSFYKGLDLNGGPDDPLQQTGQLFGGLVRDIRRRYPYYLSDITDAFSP
cytoplasmic domain of glycophorin C, sequence (P04921 82-128): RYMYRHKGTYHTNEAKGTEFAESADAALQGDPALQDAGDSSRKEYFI

Row | Substance | Kd (calmodulin) [nM] | kon (calmodulin) [M⁻¹ s⁻¹] | Kd [1] [nM] | koff [1] [s⁻¹] | kon [1] [M⁻¹ s⁻¹] | Kd [2] [nM] | koff [2] [s⁻¹] | Kd [3] [nM] | Kd (p55 [4]) [nM] | Kd [5] [nM] | koff [5] [s⁻¹] | kon [5] [M⁻¹ s⁻¹] | Kd [6] [nM] | Kd [7] [nM] | Kd (p55 [8]) [nM] | koff (p55 [8]) [s⁻¹]
1 | G30 (30kDa membrane binding domain of protein 4.1G) (from UniProt O43491 1-1005) (domain or fragment) | 190 |  |  |  |  |  |  |  |  |  |  |  |  |  |  | 
2 | GHP-G30 (headpiece region and 30kDa domain of 4.1G) (from UniProt O43491 1-1005) (domain or fragment) | 2970 | 180000 |  |  |  |  |  |  |  |  |  |  |  |  |  | 
3 | complex of RHP-G30 and CaM (from UniProt P11171 1-209; P0DP23 1-149) |  |  | 314 | 0.016 | 51000 | 183 | 0.012 | 237 | 113 | 737 | 0.019 | 25000 | 2190 | 1480 | 1760 | 0.012
